Measured values from US20170183403A1.

Target: T1, Reference peptide no. 48
T1 sequence (peptide): PKLTRMLTFKFAMPK
Assay: peptide microarray (RepliTope), Ala mutagenesis set

NARA1 (antibody)
signal intensity after subtraction of control signal: 6200 AU
